Tests used:
Assay in all cases: SPR
[1] = biological target: mis-disordered tau 151-391/3R (human, UniProt P10636-5 151-391)
[2] = biological target: human tau protein isoform 2N3R (human, UniProt P10636-5 1-410)
[3] = biological target: mis-disordered tau protein 151-391/4R (human, UniProt P10636-8 151-391)
[4] = biological target: human tau protein isoform 2N4R (human, UniProt P10636-8 1-441)
human tau protein isoform 2N4R, sequence (P10636 other isoform, or with tags, fused parts or gaps): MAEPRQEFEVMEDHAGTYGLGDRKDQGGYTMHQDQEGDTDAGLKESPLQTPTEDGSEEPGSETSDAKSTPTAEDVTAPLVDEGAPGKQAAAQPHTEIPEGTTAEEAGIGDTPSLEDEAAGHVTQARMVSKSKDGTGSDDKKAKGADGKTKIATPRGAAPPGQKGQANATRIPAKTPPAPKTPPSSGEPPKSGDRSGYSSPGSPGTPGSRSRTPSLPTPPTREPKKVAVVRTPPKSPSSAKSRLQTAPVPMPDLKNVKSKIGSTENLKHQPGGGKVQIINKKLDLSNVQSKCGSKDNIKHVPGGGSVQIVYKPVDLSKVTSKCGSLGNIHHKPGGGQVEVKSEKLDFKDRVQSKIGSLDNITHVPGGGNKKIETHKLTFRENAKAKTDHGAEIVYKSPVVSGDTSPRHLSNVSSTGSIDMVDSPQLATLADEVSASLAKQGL

mis-disordered tau 151-391/3R, sequence (P10636 other isoform, or with tags, fused parts or gaps): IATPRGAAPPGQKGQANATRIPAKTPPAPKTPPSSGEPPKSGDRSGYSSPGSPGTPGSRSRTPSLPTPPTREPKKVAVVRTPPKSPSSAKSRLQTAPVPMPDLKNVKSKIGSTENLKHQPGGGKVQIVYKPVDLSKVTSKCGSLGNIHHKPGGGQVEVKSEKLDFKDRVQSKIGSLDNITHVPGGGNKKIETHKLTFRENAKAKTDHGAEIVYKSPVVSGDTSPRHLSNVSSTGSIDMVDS
human tau protein isoform 2N3R, sequence (P10636 other isoform, or with tags, fused parts or gaps): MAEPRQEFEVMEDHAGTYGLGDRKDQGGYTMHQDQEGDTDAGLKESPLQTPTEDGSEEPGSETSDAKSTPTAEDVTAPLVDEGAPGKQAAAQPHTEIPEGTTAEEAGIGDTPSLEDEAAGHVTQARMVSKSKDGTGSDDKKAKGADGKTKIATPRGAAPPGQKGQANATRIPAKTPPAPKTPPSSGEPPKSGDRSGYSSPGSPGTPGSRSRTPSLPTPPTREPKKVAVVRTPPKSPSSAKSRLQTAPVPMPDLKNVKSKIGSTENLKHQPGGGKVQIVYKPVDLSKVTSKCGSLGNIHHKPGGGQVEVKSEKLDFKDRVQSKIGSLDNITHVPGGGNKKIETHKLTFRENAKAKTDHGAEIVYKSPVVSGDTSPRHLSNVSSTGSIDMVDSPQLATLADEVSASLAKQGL
mis-disordered tau protein 151-391/4R, sequence (P10636 468-708): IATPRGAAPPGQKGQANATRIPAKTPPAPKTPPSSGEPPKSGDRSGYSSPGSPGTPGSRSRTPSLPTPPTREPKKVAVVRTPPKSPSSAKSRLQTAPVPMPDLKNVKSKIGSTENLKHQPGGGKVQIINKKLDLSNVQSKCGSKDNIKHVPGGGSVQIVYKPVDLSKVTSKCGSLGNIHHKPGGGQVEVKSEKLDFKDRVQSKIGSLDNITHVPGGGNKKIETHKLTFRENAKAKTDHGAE

B1: monoclonal antibody DC8E8 (antibody, V domains shown)
VH: QVQLQQSGPELVKPGTSVKMPCKASGYIFTDYVISWVKQRTGQGLEWIGEIFPRSGSTYYNEKFKGKATLTADKSSNTAYMQLSSVTSEDSAVYFCARDYYGTSFAMDYWGQGTSVTVSS
VL: DIVMSQSPSSLAVSAGEKVTMSCKSSQSLLNSRTRKNYLAWYQQKPGQSPKLLIYWASTRESGVPDRFTGSGSGTDFTLTISSVQAEDLAVYYCKQSFYLRTFGGGTKLDIK
B1 showed a Ka [1] of 1.9e+06 M⁻¹, a Ka [2] of 80000 M⁻¹ and a Ka [3] of 7.3e+07 M⁻¹. The Ka [4] was 1.1e+07 M⁻¹.

From paper PMC4255369 (2014)
